In the assay the target is recombinant MARK2, expressed in E. coli (Rattus norvegicus (Rat)) (UniProt O08679). Briefly: cell-based or functional assay.
Chain of recombinant MARK2, expressed in E. coli (Rattus norvegicus (Rat)) (O08679 1-722, tags left off): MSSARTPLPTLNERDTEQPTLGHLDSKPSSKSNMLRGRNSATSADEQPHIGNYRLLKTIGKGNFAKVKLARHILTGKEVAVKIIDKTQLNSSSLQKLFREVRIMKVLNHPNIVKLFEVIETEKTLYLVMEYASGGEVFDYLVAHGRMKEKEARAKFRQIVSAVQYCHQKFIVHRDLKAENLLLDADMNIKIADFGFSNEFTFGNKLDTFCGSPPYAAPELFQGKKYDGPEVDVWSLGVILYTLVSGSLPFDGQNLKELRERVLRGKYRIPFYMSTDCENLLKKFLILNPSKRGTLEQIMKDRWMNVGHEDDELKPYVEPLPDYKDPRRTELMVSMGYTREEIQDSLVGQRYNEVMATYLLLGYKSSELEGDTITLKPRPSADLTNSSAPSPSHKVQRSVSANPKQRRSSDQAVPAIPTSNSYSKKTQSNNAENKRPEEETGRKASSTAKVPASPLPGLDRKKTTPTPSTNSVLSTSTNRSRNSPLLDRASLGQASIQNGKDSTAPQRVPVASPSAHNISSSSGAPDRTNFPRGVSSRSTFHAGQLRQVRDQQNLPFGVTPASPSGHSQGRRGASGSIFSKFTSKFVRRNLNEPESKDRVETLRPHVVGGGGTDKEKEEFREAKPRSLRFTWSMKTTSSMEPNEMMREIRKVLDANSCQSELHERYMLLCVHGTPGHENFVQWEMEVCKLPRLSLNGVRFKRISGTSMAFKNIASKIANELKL

Consider “MARK-activating factor (MAF) purified from porcine brain”, for which the activation of MARK2 by fraction 14 is 10 fold.
As to “recombinant MARKK (His10-tagged at the N-terminus), expressed in Sf9 cells (from UniProt O88664 1-1001) (enzyme)”, the activation of MARK2 (Fig. 4B) amounted to 10 fold.
